Laboratory results reported in US20190167721A1 (FOURTH MILITARY MEDICAL UNIVERSITY XI AN, published 2019).

T1: glycosylated CEA (human, UniProt P06731 35-685, glycosylated (sites and glycans not stated))
T1 construct: whole, on cells; also called glycosylated CEA antigen; MG7
T1 sequence (looked up): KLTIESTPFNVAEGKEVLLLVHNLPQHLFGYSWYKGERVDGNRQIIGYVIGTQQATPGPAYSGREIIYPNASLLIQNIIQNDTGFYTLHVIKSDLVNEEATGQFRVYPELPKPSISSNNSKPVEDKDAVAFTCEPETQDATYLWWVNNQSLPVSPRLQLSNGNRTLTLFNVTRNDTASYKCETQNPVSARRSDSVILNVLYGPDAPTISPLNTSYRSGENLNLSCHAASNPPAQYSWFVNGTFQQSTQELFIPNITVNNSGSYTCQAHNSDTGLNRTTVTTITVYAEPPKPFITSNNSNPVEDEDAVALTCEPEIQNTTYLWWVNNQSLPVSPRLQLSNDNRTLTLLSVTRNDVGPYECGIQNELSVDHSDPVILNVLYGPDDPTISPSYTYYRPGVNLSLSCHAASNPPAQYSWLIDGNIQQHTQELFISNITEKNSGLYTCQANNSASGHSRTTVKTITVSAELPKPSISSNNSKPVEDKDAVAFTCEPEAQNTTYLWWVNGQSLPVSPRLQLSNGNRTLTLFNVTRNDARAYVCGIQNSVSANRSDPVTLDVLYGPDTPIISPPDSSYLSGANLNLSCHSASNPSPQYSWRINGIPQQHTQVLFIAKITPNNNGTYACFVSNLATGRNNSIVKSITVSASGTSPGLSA

T2: CEA overexpressed on SW620-CEA cells (CEACAM5, non-glycosylated state) (UniProt P06731 35-685)
T2 construct: whole, on cells; also called CEACAMS; CEA antigens with a lower degree of glycosylation
T2 sequence (looked up): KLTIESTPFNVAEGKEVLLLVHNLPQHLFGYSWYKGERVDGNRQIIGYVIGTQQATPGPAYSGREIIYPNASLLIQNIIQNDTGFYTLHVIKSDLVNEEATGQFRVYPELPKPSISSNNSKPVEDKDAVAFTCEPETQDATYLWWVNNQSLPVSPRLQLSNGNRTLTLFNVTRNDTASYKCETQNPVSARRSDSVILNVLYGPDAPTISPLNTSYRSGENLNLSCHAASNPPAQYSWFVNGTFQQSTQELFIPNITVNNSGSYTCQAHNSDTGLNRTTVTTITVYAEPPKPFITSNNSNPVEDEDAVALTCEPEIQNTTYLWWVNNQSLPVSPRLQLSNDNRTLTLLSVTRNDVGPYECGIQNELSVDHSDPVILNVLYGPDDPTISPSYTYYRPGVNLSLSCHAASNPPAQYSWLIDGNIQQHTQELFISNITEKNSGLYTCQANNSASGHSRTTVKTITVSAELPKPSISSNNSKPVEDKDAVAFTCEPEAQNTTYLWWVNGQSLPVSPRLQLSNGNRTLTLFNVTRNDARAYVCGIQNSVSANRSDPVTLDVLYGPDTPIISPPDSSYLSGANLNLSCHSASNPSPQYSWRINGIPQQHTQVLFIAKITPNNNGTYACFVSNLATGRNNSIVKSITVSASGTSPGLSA


How the values were obtained:
[1] = target: T1, glycosylated CEA; assay: flow cytometry on CRYPT cells, goat anti-mouse IgG-APC, logistic fit of MFI
Description: (§1) The antibodies FM2, FM4, FM5, and FM6 were diluted with PBS buffer containing 1% BSA, and incubated with SW620-CEA or CRYPT cells (final concentrations: 50 μg/ml, 5 μg/ml, 0.5 μg/ml, 0.05 μg/ml, 0.005 μg/ml, 0.0005 μg/ml) for 1 hour at room temperature; the cells were washed twice with PBS buffer containing 1% BSA, and then incubated with Goat Anti Mouse IgG-APC for 1 hour; the cells were washed twice with PBS buffer containing 1% BSA and resuspended in PBS buffer; the APC fluorescence values of the cells were read using BD Accuri C6 FACS.
(§2) Using the median fluorescence value (MFI) as the ordinate and the antibody concentration (μg/ml) as the abscissa, the S-curve was fitted using a logistic equation to calculate the antibody binding EC50, the results are shown in the following table: […]

[2] = target: T2, CEA overexpressed on SW620-CEA cells …; assay: flow cytometry on SW620-CEA cells, goat anti-mouse IgG-APC, logistic fit of MFI
Description: as §1, §2

[3] = target: T1, glycosylated CEA; assay: ratio of EC50 values from flow cytometry on cells

EC50 [1] [µg/mL] | EC50 [2] [µg/mL] | selectivity (glycosylated CEA on CRYPT against non-glycosylated CEA on SW620-CEA) [3] [fold] | Binder
0.02 | 0.8 |  | FM2 (scFv, V domains shown, also called antibody FM2; FM2 single-chain antibody) VH: DVKLVESGGGLVKPGGSLKLSCAASGFTFSRYTMSWVRQTPEKRLEWVATISNSGSYTYYRDSVKGRFTISRDNAKNTLYLQMSSLKSEDTAMYYCTRGSPWGQGTLVTVSA VL: DIQMTQSPDSLSASVGETVTITCGASENIYGALNWYQRKQGKSPQLLIYGATKLADGMSSRFSGSGSNRQYSLKISSLHPDDVATYYCQNVLSKPYAFGGGTKLEIK
0.04 | 0.2 |  | FM5 (scFv, V domains shown, also called antibody FM5; FM5 single-chain antibody) VH: QVQLKESGPGLVAPSQNLSITCTVSGFSLTSYAINWVRQPPGKGLEWLGIIWTGGGTNYNSALKSRLSISKDNSKSQVFLKMNSLQTDDTARYYCASGVYYFDYWGLGTTLTVSS VL: DIVMTQSHKFMSTSVGDRVSITCKASQDVTTAVAWYQQKPGQSPKVLIFWASTRHTGVPDRFTGSGSGTDYTLTISSVQAEDLALYYCQQYYRTPRTFGGGTKLEIK
0.51 |  | > 100 | FM4 (scFv, V domains shown, also called antibody FM4; FM4 single-chain antibody) VH: EVKLVESGGGLVQPGGSLRLSCSISGFTFTDYYMNWVRQSPGKALEWLGFIRNKVNGDTTEYSASVKGRFTISRDISQSILYLQMNTLRTEDSATYYCARDKGIAYYFDYWGQGTTLTVSS VL: QIVLSQSPAILFASPGEKVTMTCRASSSVSYIHWYQQKPGSSPKPWIHGTSNLASGVPARFSGSGSGTSYSLTISRMEAEDAATYYCQQWSSNLSTFGGGTKLEIK
